{"source": "patent US20250025502A1", "about": "“COMPOSITIONS AND METHODS FOR CONTROLLING CELL SIGNALING WITH CHIMERIC RECEPTORS” (GentiBio, Inc., priority 2021, published 2025)", "molecules": {"B1": {"name": "IL10: interleukin IL10 used as stimulus for comparison in the reporter assay (protein, UniProt P22301 19-178, looked up)", "Interleukin-10": "SPGQGTQSENSCTHFPGNLPNMLRDLRDAFSRVKTFFQMKDQLDNLLLKESLLEDFKGYLGCQALSEMIQFYLEEVMPQAENQDPDIKAHVNSLGENLKTLRLRLRRCHRFLPCENKSKAVEQVKNAFNKLQEKGIYKAMSEFDIFINYIEAYMTMKIRN"}}, "tested_on": "IL10 signaling pathway (STAT3)", "assay": "SEAP colorimetric assay in reporter cells with RISE10 constructs", "format": "cell-based", "description": "FIG. 8 provides an example of CISC signaling through the IL10 signaling pathway. Cells were treated with IL10 or rapamycin at varying doses.\nThe signaling activity of RISE10 constructs (FIGS. 2 and 7) was examined. InvivoGen HEK-BLUE™ IL2 reporter cells, in which production of STAT3 (from IL10 signaling) leads to release of secreted embryonic alkaline phosphatase (SEAP), were used. The reporter cells were transfected with different levels of IL10, rapamycin and the RISE10 construct with a synthetic linker, (G4S)×3 (“CISC10 RaL”), or rapamycin and the RISE10 construct with IL10 hinge domains (“CISC10 RhL”). A colorimetric enzyme assay was performed to quantify the secreted embryonic alkaline phosphatase, and the results are shown in FIG. 8."}
{"molecule": "B1", "values": [{"measurement": "IL10 dose giving similar peak plateau (SEAP)", "value": 10, "unit": "ng/mL"}]}
